In this assay the target is α1-specific anti-SynGAP antibody (06–800). The assay can be described thus: western blot of cell lysates, band intensity quantified. The settings on record: H293T cells transfected with wild-type or PBM EGFP-SynGAPα1; probed with Pan-SynGAP (D20C7) and α1-specific antibody; n = 4; parent: est. 1.0; read off a plot. On the technique in general: Immunoblotting shows a protein as a band on a membrane.

For the substance “EGFP-SynGAPα1 T/I; V/E (C-terminal PDZ-binding motif QTRV changed to QIRE)”, the ratio to parent is 0.45.

The values are drawn from PMC9064290.
